Consider two molecules from paper PMC9347012, “Regulation of tomato fruit elongation by transcription factor BZR1.7 through promotion of SUN gene expression”.

The data set addresses BZR1.7 (His-6-MBP-BZR1.7) (Solanum lycopersicum, UniProt A0A3Q7IIT4 1-180). Briefly: EMSA; EMSA: 20 uL binding reaction buffer (composition not given), 40 min at 4 °C in the dark; 6% native PAGE, 0.5x TBE, 4 °C; pH and salt not given. As to conditions: protein: recombinant; tags: His6-MBP, N-terminal; label: 5'-FAM (on one strand; partner unlabeled); blunt.

BZR1.7 (His-6-MBP-BZR1.7), sequence (A0A3Q7IIT4 entry or part of it): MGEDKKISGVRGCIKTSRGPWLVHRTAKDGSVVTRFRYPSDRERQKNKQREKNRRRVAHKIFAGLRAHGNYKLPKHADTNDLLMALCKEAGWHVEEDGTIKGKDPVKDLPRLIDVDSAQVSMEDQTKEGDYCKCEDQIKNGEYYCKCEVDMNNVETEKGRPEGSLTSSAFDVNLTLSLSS

B1: E-box-wt probe (SUN promoter, 42 bp) (dsDNA)
DNA 1: TGTCCATCAAGACCGAAACAAATGAGAAAAATCACCTAGTGT
DNA 2: ACACTAGGTGATTTTTCTCATTTGTTTCGGTCTTGATGGACA
Regarding B1, the binding result is reported as “binds”.

B2: E-box-mt probe (CAAATG to TCGCGA) (dsDNA)
DNA 1: TGTCCATCAAGACCGAAATCGCGAAGAAAAATCACCTAGTGT
DNA 2: ACACTAGGTGATTTTTCTTCGCGATTTCGGTCTTGATGGACA
On to B2, for which the binding result is “no binding”.
